In patent US7157259B2, “Murine lecithin-cholesterol acyltransferase protein” (Takeda Pharmaceutical Company Limited, priority 1997, dated 2007):
Each block holds one molecule with its values, some of them ahead of it.

What was measured:
[1] = molecular target: T1, human LCAT-like protein/FLAG fusion protein (Homo sapiens, UniProt Q8NCC3); assay: Influence of DFP and DTNB on esterase activity assayed with PNPB; assay type: biochemical; details: inhibitor pre-incubated 25° C. for 1 hour before substrate; PNPB 500 μM; fusion protein 3.4 μg/ml; FIG. 18
T1 construct: made in house; host or cells: baculovirus (Bac-To-Bac); secreted into the culture supernatant
T1 sequence (Q8NCC3 34-412): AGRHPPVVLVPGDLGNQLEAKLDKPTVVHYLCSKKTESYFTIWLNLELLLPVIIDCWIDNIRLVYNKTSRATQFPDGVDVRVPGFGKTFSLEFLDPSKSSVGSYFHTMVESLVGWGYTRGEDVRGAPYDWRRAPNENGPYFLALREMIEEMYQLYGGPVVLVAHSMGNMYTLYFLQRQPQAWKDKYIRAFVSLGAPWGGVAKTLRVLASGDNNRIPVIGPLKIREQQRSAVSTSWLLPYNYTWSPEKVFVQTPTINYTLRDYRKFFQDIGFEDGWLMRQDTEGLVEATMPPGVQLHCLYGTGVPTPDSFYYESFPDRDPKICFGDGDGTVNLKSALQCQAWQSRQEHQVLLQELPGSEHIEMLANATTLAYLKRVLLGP

[2] = Esterase activity assay using the fatty acid ester p-nitrophenyl butyrate (PNPB); assay type: biochemical
Description: Assays were carried out in accordance with the method of Bonelli, F. S. and Jonas, A. [Journal of Biological Chemistry, 264, 14723–14728, 1989]. Thus, to the reaction buffer (10 mM Tris, pH 7.4, 150 mM NaCl, 0.01% EDTA, 1 mM NaN3) was added a graded solution of p-nitrophenyl butyrate (PNPB) in acetonitrile (final concentration:5 mM–50 μM) as the substrate. Then, the human LCAT-like protein/FLAG fusion protein obtained in Example 9 was added (final concentration:3.4 μg/ml) to make 1 ml. The mixture was incubated at 37° C. for 20 minutes and the absorbance at 400 nm was measured at 2-minute intervals. From the percent changes in absorbance at the respective substrate concentrations, initial velocity was calculated, and according to the Lineweaver-Burk method, Vmax and Km were calculated (FIG. 16). […] Using 50 μl of the semi-purified enzyme solution of fractions 6 and 7 (4 ml) obtained in Example 12 (FIG. 14), a similar activity assay was carried out at a substrate concentration of 100 μM.

[3] = PNPB 5 mM–50 μM, protein 3.4 μg/ml, 37° C., compared with human plasma LCAT, FIG. 16

- inhibition of esterase activity [1]: inhibited
Molecule: O=C(O)c1cc(SSc2ccc([N+](=O)[O-])c(C(=O)O)c2)ccc1[N+](=O)[O-] [DTNB, 5,5′-dithiobis(2-nitrobenzoic acid)]

B1: human LCAT-like protein/FLAG fusion protein: human LCAT-like protein with FLAG peptide fused at C-terminus, expressed in insect cells, purified on anti-FLAG M2 affinity column (protein)
chain: AGRHPPVVLVPGDLGNQLEAKLDKPTVVHYLCSKKTESYFTIWLNLELLLPVIIDCWIDNIRLVYNKTSRATQFPDGVDVRVPGFGKTFSLEFLDPSKSSVGSYFHTMVESLVGWGYTRGEDVRGAPYDWRRAPNENGPYFLALREMIEEMYQLYGGPVVLVAHSMGNMYTLYFLQRQPQAWKDKYIRAFVSLGAPWGGVAKTLRVLASGDNNRIPVIGPLKIREQQRSAVSTSWLLPYNYTWSPEKVFVQTPTINYTLRDYRKFFQDIGFEDGWLMRQDTEGLVEATMPPGVQLHCLYGTGVPTPDSFYYESFPDRDPKICFGDGDGTVNLKSALQCQAWQSRQEHQVLLQELPGSEHIEMLANATTLAYLKRVLLGP
modifications: left off: small tags and cut ends
- Km (Lineweaver-Burk) [2, 3]: agreed with the values of human plasma LCAT on an order basis
- Vmax (Lineweaver-Burk) [2, 3]: agreed with the values of human plasma LCAT on an order basis

B2: human LCAT-like protein: recombinant human LCAT-like protein expressed in High Five insect cells, semi-purified on Phenyl-Sepharose HP (fractions 6 and 7) (protein, UniProt Q8NCC3 34-412, looked up)
Lysosomal phospholipase A and …: AGRHPPVVLVPGDLGNQLEAKLDKPTVVHYLCSKKTESYFTIWLNLELLLPVIIDCWIDNIRLVYNKTSRATQFPDGVDVRVPGFGKTFSLEFLDPSKSSVGSYFHTMVESLVGWGYTRGEDVRGAPYDWRRAPNENGPYFLALREMIEEMYQLYGGPVVLVAHSMGNMYTLYFLQRQPQAWKDKYIRAFVSLGAPWGGVAKTLRVLASGDNNRIPVIGPLKIREQQRSAVSTSWLLPYNYTWSPEKVFVQTPTINYTLRDYRKFFQDIGFEDGWLMRQDTEGLVEATMPPGVQLHCLYGTGVPTPDSFYYESFPDRDPKICFGDGDGTVNLKSALQCQAWQSRQEHQVLLQELPGSEHIEMLANATTLAYLKRVLLGP
- esterase activity ([2]; 50 μl semi-purified enzyme solution of fractions 6 and 7 of Example 12, PNPB 100 μM, FIG. 17): confirmed to have esterase activity
